# Experiment: soluble on expression in E. coli; label from the status in PepcDB or PDB records
row,Sequence,soluble on expression in E. coli
1,MGSDKIHHHHHHMNDQKNAAQVGLGLRREMLSEFCESVPEAINFFEVAPENWMTLGGKFGRQFRELTEQHTFYCHGLSLSIGSPEPLDLAFVKNIKTFMDLHQIQIYSEHLSYCSGQGHLYDLMPIPFTDAAVKHVAARVKQVEDILERPLILENVSFYAAPGARMSELEFVNAVLQEADCKLLLDVNNIYVNSINHQYDADTFLQAMPTERIAYLHIAGHYKQAEDLLIDTHGAAINDPVWALLQRCYALHGVKPTLLERDFNVPTTAELLLELNQIHAYQAAAPSSHIQNSAHVVKRIA,not soluble
2,MFFSFKIDGDELDKRMGGGVYVGQLFTIFGDNSEGKTLLSLRLAYGFLKNGISITYVSSQMPVREFISFSDALGYPVLNSVISGSMLYITPVFMLRRTRRANLDELINNDRIKEKSVLIIDSLNPGMFRDFEINSYMEKLRKFSENRVVIITANQASLDDATVLRINQLSTTIVTLHSKELGGVKRHFIDLVKYPMVVRSIQQSIPFRVEPGRGLIVEISSVS,not soluble
3,GPGSMIRRYSLAIGGSCCCPAPRLISTEAFVSSVEKVQHQLGTSERKQDLILHGRQLFENESLDDIHSAWTPVVAGKICHAATQLRISPTKGQPFGAVVGLSLTPEAVGVMDAPSLARIAHSCLILRSPHLYEVLFTYIRRLITLAATLDTVSCAVLINAYGRAQVHHEEFYKVICDRAAVVMKDPRTFVAHTANVAHALSRVRYFHRDLFLTLRDQAERQASQGPPLVAVTILDGFAEIGFVDDALFTALEQRLLGELAELPAPLMASLVSCLAKAGRAPSPLFTACGERIVAIGNTFDSNSIAKTCDAFYRANVPAEEVLGTLAERACKVVADFRPDEINQTLSSLASFDLFDGELFPLLASRFVSIVKQGGYVSPVDAAGILTSFAVVQERSDELVHVCTQLLSVHRDALDGITLLQTLWACVTLNVRNEAQQNLLQCLSSGAVVLPDEASAEKESKVVLERLLFVKKAYGLQ,not soluble
4,MAEEQARHVKNGLECIRALKAEPIGSLAIEEAMAAWSEISDNPGQERATCREEKAGSSGLSKPCLSAIGSTEGGAPRIRGQGPGESDDDAETLGIPPRNLQASSTGLQCYYVYDHSGEAVKGIQDADSIMVQSGLDGDSTLSGGDNESENSDVDIGEPDTEGYAITDRGSAPISMGFRASDVETAEGGEIHELLRLQSRGNNFPKLGKTLNVPPPPDPGRASTSGTPIKKGHRREISLIWNGDRVFIDRWCNPMCSKVTLGTIRARCTCGECPRVCEQCRTDTGVDTRIWYHNLPEIPE,not soluble
5,MLRFYAMKQITEPGTYEIRGEVAEGDFSWDATNFAGFFYDVNDDVSTESLTVTGLNGGNVIPEGGLVYETTIQMVDYEYSKPSVGWDQFPVLGFFAEEYIPINADKADKLAKLVLDSDDKYTIRTGEQLDLGEGYAIEAKQVDVDGEKVWLEFTKDGEFVDDEIISVVSGSDNTWEVELDDIQDEDDVVVLRVHVNQVFQGAVDSIAQIEGIWLIDYANAMKIESDDEFGDLDNVKINGATLTITNEDTFTLTRDDEVEIGQGMFFKVADTAASDLRYYPFVEKTIDGEVVLEHHHHHH,soluble
6,MAIDPAAAYASAIRTPGLLPNAKLVVDHFHVTTLANDALTAVRRRVTWAFHDRRGRKIDPQWANRRRLLTARERLSDKSFAKMRNRINAVDPRAQILSAWIAKEELRTLLSTVRTGGDPHLARHHLHRFLPGASTRRSPNCSPWPPPLTSHPRSTPSWSPASPTRASVVGEVAEMLGDIDGQCVQVEVPVPERGPAGCGGLDGLGRAGVSATPRVCAAMTAVNVAGRCAGQQADVGPTPQHRCRGR,soluble
7,MNEFEIGLMSYLGREKLEKLGKVKVGIAGAGGLGSNCALHLVRSGFKNLKIVDFDVVEPSNLNRQFFFLDQLGRPKVLALKENLARINPDVMIEAIQQKVDRNNAKQLFDDCDAVVEAFDKVECKTMMAEAFASSGKFFVCASGLAGWGNSDEIRIRKVHDRFYIVGDFVTGVKEGIPPISPRVNIAAAKQADLILSFFLDDADNTVNVNCQEGLEHHHHHH,soluble
8,SNAYSIALIIPSLFEKACAHFLPSFQQALNKAGYQLLLGYSDYSIEQEEKLLSTFLESRPAGVVLFGSEHSQRTHQLLEASNTPVLEIAELSSKASYLNIGVDHFEVGKACTRHLIEQGFKNVGFIGARGNHSTLQRQLHGWQSAMIENYLTPDHFLTTHEAPSSQLGAEGLAKLLLRDSSLNALVCSHEEIAIGALFECHRRVLKVPTDIAIICLEGSSMGEHAYPSLTSAEFDYERMGTKAAEKLLHAIKGEPEERPTSMGFKLKRRASTAIN,soluble
9,FASFSNFTLKYHEKRFQQYGYGLMLNDTNFPGGSSGSPLIGKDNKLNSIYFGVLEIYQSGSLARNDIGMSQILRTPQ,not soluble
10,MTIKSDKWIRRMAQEHGMIEPFVERQVRGADDSRVISYGVSSYGYDVRCAAEFKVFTNIHSAVVDPKNFDEKSFVDINSDVCIIPPNSFALARTVEYFRIPRDVLTICLGKSTYARCGIIVNVTPLEPEWEGHVTLEFSNTTNLPAKIYANEGVAQMLFLQSDEACEVSYKDRGGKYQGQR,soluble
11,MTTWLYAGVDGGGTGCRARIYQANGTPLGQGHGGRANLLLGVENVRQSVDNAIAQALKHSGLSPDDVSRLKVGLALASAEHRTAYDTFLALPHPYATQVLNTDALGACLAVNQGKDAGVVIAGTGSCGLAWQNQTITAYGGHEFPISDQGSGARLGLAALQHTHDVLQGWRAPSALSQSIDDFFCASAAHALAANTLDALQTFSQQAKPGDYAQFARHVFDCAQQDDAVSHALLAQTASEICLLLAAVARHASPRLSLMGSIGLHIRPWLPDEWQSQLAVPMGDALDGARLIACHDYALYSHPLLEHHHHHH,not soluble
12,MSLIKLYDNYVFISQEGGESGERLYSKKFREKSVVDVSGLRIGEGLVVAAGPCSVENEAMILDIARSVKAAGADMIRGGAFKPRTSPYSFQGLAEKGIEYLVEAREETGLPIVTEIMNPEYYRYFDRVDMLQVGSRNAQNFDLLRFLGKQKKPVLLKNGMGNTAREWLETAEYILSGGNGNVVLCYRGVRGIENSTRFTMNVGSIIYAKSETHLPICADPSHASGRRDFVESMALASVAAGADMLEIEVHNDPDNALSDSEQQIRPVDLKRIIEKARALKDLLSHEIEGHHHHHH,not soluble
13,MKFLELNKKRHATKHFTDKLVDPKDVRTAIEIATLAPSAHNSQPWKFVVVREKNAELAKLAYGSNFEQVSSAPVTIALFTDTDLAKRARKIARVGGANNFSEEQLQYFMKNLPAEFARYSEQQVSDYLALNAGLVAMNLVLALTDQGIGSNIILGFDKSKVNEVLEIEDRFRPELLITVGYTDEKLEPSYRLPVDEIIEKR,soluble
14,GRHLFVLEREAKLKDYLATADITRVEKGDTKFGVVTAGTCYPYLREVLPNATVLKLGASWPLPDTLLREFCASVDQVFVVEELEPIIEKEVASLGIKVEGKRLFPRAGEFSPEVVRAGFVQAGLLPAPPSYNAWVPEPVVRPPVLCAGCPHTSSFLAVRASGARVAGDIGCYTLAVLDPLRGIDTCVAMGSSIGNAIGMAKAGEAKPVVATIGDSTFLHAGLPALIDAVYNQANIAVVLLDNHITAMTGGQEH,not soluble
15,GPGSMSSTQTTSVFFTDVPLFVEERSLRKHFESVGHITDFRLLGPPVGKDFRYGFAEYLDSTSAEEAIARLNGTSFGGRPMKVMSAAATRGRKRQRQQNASHQQQPAPRGGMTFPRGYTDPVLGRDDTSIFECLQGMQQSDAYEAVEQLRVLVLERKNEARKLLENNPALRLAVVMILQHAGRLPFGPLPPEAIQHGGIRVDAPVPAAPAEGEGEKVEPPREQNDEIIEILSKLSEEEVERIVSMTDEDLNRIPDVSQRQQIGVLRERLLELAADLE,soluble
16,MQILNKILPQVEFAIPRPSFDSLSRNKLVKKILSVFNLKQRFPQKNFGCPVNINKIRDSVIDKIKDSNSGNQLFCWMSQERTTYVSSMINRSIDEMAIHNGVVLTSDNKRNIFAAIEKKFPDIKLDEKSAQTSISHTALNEIASSGLRAKILKRYSSDMDLFNTQMKDLTNLVSSSVYDKIFNESTKVLQIEISAEVLKAVYRQSNTNLEHHHHHH,not soluble
17,MSNFEKRNRKMAEKNIRKPKQERSIEKRNKILQVAKDLFSDKTYFNVTTNEIAKKADVSVGTLYAYFASKEDILTALLKRYNDFFLTTIFADINSQDSLDRFKKNPKEWLNVLINQLLAAEDKIFHAQIEMLAYAIPQAKALLEEHNNNLKNLTYKCLLYYSDQAANPSFKTLSLVVFDFISALVDELLYHEHTQEEAHQIKKTGIDSLDLIIKSYL,soluble

# — the DeepSol protein solubility set
